Source: patent publication US20210324359A1, “USE OF GRAM-NEGATIVE LYSIN-ANTIMICROBIAL PEPTIDE (AMP) POLYPEPTIDE CONSTRUCTS IN TREATING ENDOCARDITIS” (priority 2020, published 2021)

What was measured:
[1] = tested on: P. aeruginosa strain WC-453; assay: Time-kill assay in HEPES or CAA with 25% human serum (Tables 7, 8); assay type: cell-based, Pseudomonas aeruginosa
Method: Exponential phase bacteria were then pelleted and resuspended in 1/5 culture volume of 25 mM HEPES, pH 7.4 before a final adjustment to an optical density corresponding to a McFarland value of 0.5. […] All treatments were incubated at 37° C. with aeration. At time points before the addition of lysin (or buffer control) and at 1 hour and 3 hours intervals thereafter, culture samples were removed for quantitative plating on CAA agar plates.

[2] = tested on: outer membrane of P. aeruginosa (CFS 1292); assay: N-phenyl-1-napthylamine (NPN) uptake assay, outer membrane destabilization (Table 15); assay type: cell-based, Pseudomonas aeruginosa; settings: NPN fluorescence, buffer = 100, lysin 100 μg/well
Method: The ability of gram-negative lysins to destabilize the outer membrane of P. aeruginosa was evaluated through the use of an N-phenyl-1-napthylamine (NPN) uptake assay. […] NPN was added to a final concentration of […]. […] Changes in fluorescence were recorded (excitation 1=350 nm; emission 1=420 nm) over two hours.

P. aeruginosa isolates = assay: MIC against a range of isolates in CAA + […] human serum (Table 11); assay type: cell-based, Pseudomonas aeruginosa
P. aeruginosa strains = assay: Checkerboard synergy with meropenem in 25% CAA and […] human serum (Table 16); assay type: cell-based, Pseudomonas aeruginosa; settings: for FICI value (Run #1), with meropenem / FICI value (Run #2), with meropenem: 25% CAA and […] human serum
P. aeruginosa = assay: MIC, modified CLSI broth microdilution in CAA medium without or with […] human serum (Table 4); assay type: cell-based, Pseudomonas aeruginosa; for CAA/HuS MIC: CAA supplemented with 2.5% human serum
From the text: 2015. […] Clinical and Laboratory Standards Institute, Wayne, Pa.

[3] = tested on: Pseudomonas aeruginosa biofilm; assay: MBEC in CAA supplemented with […] human serum (Table 14); assay type: cell-based
Method: (§1) Biofilms are then washed and treated with e.g., a 2-fold dilution series of the lysin in TSBg at e.g., 37° C. for 24 hours. After treatment, wells are washed, air-dried at e.g., 37° C. and stained with e.g., 0.05% crystal violet for 10 minutes.
(§2) Materials and methods: MICs were determined by broth microdilution in media supplemented with human serum and pulmonary surfactant ([…]®; Myoderm Clinical Supplies). Minimal biofilm eradicating concentrations (MBECs) were determined using standard methods. […] Fluorescence microscopy was performed after LIVE/DEAD staining (ThermoFisher) and TEM was performed.

[4] = tested on: Pseudomonas aeruginosa strain CFS-1292 (meropenem resistant); assay: MIC in 25% CAA alone, with […] human serum or […] SURVANTA (Table 13); assay type: cell-based
Method: as §2

[5] = tested on: carbapenem-resistant P. aeruginosa strains; assay: Resensitization of carbapenem-resistant strains, combinations with imipenem or meropenem (Tables 18-22); assay type: cell-based, Pseudomonas aeruginosa; settings: for FICI: isolate WC-452
Method: Such resensitization may be determined by combining the present lysins or lysin-AMP polypeptide constructs with an antibiotic in a checkerboard assay as described herein. Antibiotic-resistant bacteria, such as carbapenem-resistant P. aeruginosa, are added to the lysin or lysin-AMP polypeptide construct combination. […] See Clinical and Laboratory Standards Institute (CLSI), CLSI. […] M100 Performance Standards for Antimicrobial Susceptibility Testing; 29th Edition. Clinical and Laboratory Standards Institute, Wayne, Pa., which is herein incorporated by reference in its entirety.
Up to seven carbapenem-resistant isolates were assessed. […] See Clinical and Laboratory Standards Institute (CLSI), CLSI. […] M100 Performance Standards for Antimicrobial Susceptibility Testing; 29th Edition. Clinical and Laboratory Standards Institute, Wayne, Pa.

[6] = tested on: Pseudomonas aeruginosa strain CFS-1292 (meropenem resistant); settings: strain CFS-1292; no added cations
Method: The activity of selected GN lysins and constructs in the presence of divalent cations was evaluated, and the impact of divalent cations at physiological concentrations was examined in the MIC assay format.

[7] = tested on: biofilms formed by P. aeruginosa strain ATCC 17646; settings: strain ATCC 17646 biofilm
Method: as §1

B1: GN428: lysin obtained from Escherichia virus CBA120 (SEQ ID NO: 60) (protein, listed as Escherichia virus)
chain: MAILKLGNRGSEVKALQQSLNKIGFSLTADGIFGKATENAVKSVQAGAGLVIDGIAGPKTFYAIRNAGDAHQEHLTEADLVDAARELGVELASMKAVNQVESRGTGFTKTGKIKTLFERHIMYKKVTAKFGQARANALYQLYPTLVNPNSGGYIGGDAELERLQGAIALDEDCAYESASYGLFQIMGFNCQICGYSNAKEMFTDFLTGERAHLLAFVKFIKADANMWKALKNKNWAEFARRYNGPAYAKNQYDTKLAAAYKSFC
[1]; 10 μg/mL, enumerated lysins in CAA/HuS, general statement for HEPES and CAA/HuS
  bactericidal activity (CFU decrease of 3-Log10, 3 hours after the addition of lysin): bactericidal activity
[1]; CAA + 25% human serum, lysin 10 μg/ml, 1 hr, WC-453
  CAA/HuS (Log10 CFU/mL), 1 hr: 5.5 Log10 CFU/mL
[1]; CAA + 25% human serum, lysin 10 μg/ml, 3 hr, WC-453
  CAA/HuS (Log10 CFU/mL), 3 hr: <3.7 Log10 CFU/mL
[2]; 5 minutes
  % RFU: 194 % RFU
[2]; 10 minutes
  % RFU: 242 % RFU
[2]; 20 minutes
  % RFU: 271 % RFU
[2]; 40 minutes
  % RFU: 250 % RFU
[2]; 60 minutes
  % RFU: 183 % RFU
[2]; 100 minutes
  % RFU: 137 % RFU
P. aeruginosa isolates; Tables 11 and 12
  activity against P. aeruginosa isolates in human serum or SURVANTA: active against a variety of P. aeruginosa isolates
P. aeruginosa isolates; strain CFS 1109 (ATCC 17646)
  MIC, CAA + […] Human Serum: 1 µg/mL
P. aeruginosa isolates; strain CFS 1292
  MIC, CAA + […] Human Serum: 2 µg/mL
P. aeruginosa isolates; strain CFS1539 (PA1)
  MIC, CAA + […] Human Serum: 1 µg/mL
P. aeruginosa isolates; strain CFS 1540 (PA2)
  MIC, CAA + […] Human Serum: 1 µg/mL
P. aeruginosa isolates; strain CFS 1541 (PA3)
  MIC, CAA + […] Human Serum: 1 µg/mL
P. aeruginosa isolates; strain CFS 1557 (PA19)
  MIC, CAA + […] Human Serum: 4 µg/mL
P. aeruginosa isolates; strain CFS 1558 (PA20)
  MIC, CAA + […] Human Serum: 2 µg/mL
P. aeruginosa isolates; strain CFS 1559 (PA21)
  MIC, CAA + […] Human Serum: 2 µg/mL
P. aeruginosa isolates; strain CFS 1560 (PA22)
  MIC, CAA + […] Human Serum: 2 µg/mL
P. aeruginosa isolates; strain CFS 1561 (PA23)
  MIC, CAA + […] Human Serum: 2 µg/mL
P. aeruginosa isolates; strain CFS 1562 (PA24)
  MIC, CAA + […] Human Serum: 2 µg/mL
P. aeruginosa isolates; strain CFS 1596 (PA26)
  MIC, CAA + […] Human Serum: 1 µg/mL
P. aeruginosa isolates; strain CFS 1597 (PA27)
  MIC, CAA + […] Human Serum: 0.5 µg/mL
P. aeruginosa isolates; strain CFS 1669 (PA41)
  MIC, CAA + […] Human Serum: 2 µg/mL
P. aeruginosa isolates; strain CFS 1674 (PA46)
  MIC, CAA + […] Human Serum: 2 µg/mL
P. aeruginosa isolates; strain CFS 1675 (PA47)
  MIC, CAA + […] Human Serum: 1 µg/mL
P. aeruginosa isolates; strain CFS 1766 (ATCC 27853)
  MIC, CAA + […] Human Serum: 4 µg/mL
P. aeruginosa strains; FICI less than or equal to 0.5 = potent synergy
  synergy with meropenem: exhibited synergy with meropenem
P. aeruginosa strains; strain CFS 1292
  FICI value (Run #1), with meropenem: 0.1875
  FICI value (Run #2), with meropenem: 0.219
P. aeruginosa strains; strain CFS 1557 (PA19)
  FICI value (Run #1), with meropenem: 0.1562
  FICI value (Run #2), with meropenem: 0.198
P. aeruginosa strains; strain CFS 1558 (PA20)
  FICI value (Run #1), with meropenem: 0.09375
  FICI value (Run #2), with meropenem: 0.135
P. aeruginosa strains; strain CFS 1559 (PA21)
  FICI value (Run #2), with meropenem: 0.396
P. aeruginosa strains; strain CFS 1560 (PA22)
  FICI value (Run #2), with meropenem: 0.229
P. aeruginosa strains; strain CFS 1561 (PA23)
  FICI value (Run #2), with meropenem: 0.323
P. aeruginosa strains; strain CFS 1562 (PA24)
  FICI value (Run #2), with meropenem: 0.198
P. aeruginosa strains; strain CFS 1766 (ATCC 27853)
  FICI value (Run #2), with meropenem: 0.156
P. aeruginosa; CAA medium, no human serum
  CAA MIC: 8000 µg/mL
P. aeruginosa; CAA supplemented with […] human serum
  CAA/HuS MIC: 125 µg/mL
[3]
  MBEC in CAA supplemented with […] human serum: 1 µg/mL
[4]
  MIC in […] Survanta: 4 µg/mL
  MIC in human serum ([…]) in CAA: 0.125 µg/mL
  activity in human serum and pulmonary surfactant: active in human serum and pulmonary surfactant
[4]; media alone
  25% CAA MIC: 4
[5]; imipenem (IPM) and meropenem (MEM), carbapenem-resistant isolates
  resensitization to carbapenems in synergistic combinations: reductions of IPM and MEM MICS to below breakpoint values
[5]; lysin + imipenem
  FICI: 0.188
[5]; lysin + meropenem
  FICI: 0.188
[5]; vs. WC-452 (Table 22)
  Antibiotic MIC / Lysin MIC, Alone: 2
[6]
  MIC in 25% CAA: 4 µg/mL
[7]
  MBEC: 1 µg/mL
